These results are taken from US20080247944A1 (published 2008).

Broadly, the Kd is a measure of binding affinity in units of concentration. Higher therefore signals weaker binding. In general, koff refers to a measure of how fast the partners let go of each other. Higher therefore signals a short-lived complex. One may read the kon as a measure of how fast the partners come together.

The target in assay [1] is T1, IRTA-2-Fc antigen (fusion protein composed of the extracellular domain of the IRTA-2 linked to the Fc portion … (human, UniProt Q96RD9 16-851)).
T1 construct: not shown: Fc portion of human IgG1
T1 chain: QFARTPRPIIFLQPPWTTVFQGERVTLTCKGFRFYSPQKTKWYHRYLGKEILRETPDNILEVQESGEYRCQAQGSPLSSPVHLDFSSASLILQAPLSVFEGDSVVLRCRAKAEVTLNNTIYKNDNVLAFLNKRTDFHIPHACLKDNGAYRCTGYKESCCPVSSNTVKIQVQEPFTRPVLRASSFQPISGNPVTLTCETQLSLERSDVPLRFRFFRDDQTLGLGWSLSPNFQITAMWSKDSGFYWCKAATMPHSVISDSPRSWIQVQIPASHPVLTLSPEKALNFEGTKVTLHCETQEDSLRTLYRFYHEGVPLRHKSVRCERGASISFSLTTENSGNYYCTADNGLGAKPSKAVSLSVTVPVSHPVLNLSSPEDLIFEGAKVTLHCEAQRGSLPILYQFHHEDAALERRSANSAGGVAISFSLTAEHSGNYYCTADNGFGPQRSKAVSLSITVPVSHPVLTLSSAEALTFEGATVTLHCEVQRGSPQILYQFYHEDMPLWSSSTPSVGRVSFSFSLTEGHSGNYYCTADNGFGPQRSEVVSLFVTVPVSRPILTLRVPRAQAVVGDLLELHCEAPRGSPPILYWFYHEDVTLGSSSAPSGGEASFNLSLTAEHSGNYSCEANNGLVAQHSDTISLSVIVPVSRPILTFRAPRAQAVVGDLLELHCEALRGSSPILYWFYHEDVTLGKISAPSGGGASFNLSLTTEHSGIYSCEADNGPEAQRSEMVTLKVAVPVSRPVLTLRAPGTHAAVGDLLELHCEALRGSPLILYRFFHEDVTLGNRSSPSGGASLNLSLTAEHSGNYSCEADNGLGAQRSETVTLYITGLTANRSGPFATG
Description: Biacore SPR, antibody captured by anti-human IgG on CM5 chip, IRTA-2-Fc flowed at 50-400 nM, 1:1 Langmuir fit. The protocol:
Anti-IRTA-2 antibodies were characterized for affinities and binding kinetics by Biacore analysis (Biacore AB, Uppsala, Sweden). Purified anti-IRTA-2 monoclonal antibodies were captured by anti-human IgG antibody covalently linked to a CM5 chip (carboxy methyl dextran coated chip) via primary amines, using standard amine coupling chemistry and kit provided by Biacore. Binding was measured by flowing the IRTA-2-Fc antigen (a fusion protein composed of the extracellular domain of the IRTA-2 linked to the Fc portion of human IgG1) in HBS EP buffer (provided by Biacore AB) at concentrations of 400, 300, 200, 100, and 50 nM at a flow rate of 12 μl/min. The antigen-antibody association kinetics was followed for either 20 minutes (for 8A1) or 5 minutes (for 9D12) and the dissociation kinetics was followed for ether 10 minutes (for 8A1) or 5 minutes (for 9D12). The association and dissociation curves were fit to a 1:1 Langmuir binding model using BIAevaluation software (Biacore AB).

For assay [2], the target named is T2, IRTA-2, full length transmembrane form with N-terminal myc tag, on transfected CHO cells (human, UniProt Q96RD9 16-977).
T2 construct: also called CHO cells transfected with IRTA-2; human IRTA-2; not shown: myc tag at the N-terminus
T2 chain: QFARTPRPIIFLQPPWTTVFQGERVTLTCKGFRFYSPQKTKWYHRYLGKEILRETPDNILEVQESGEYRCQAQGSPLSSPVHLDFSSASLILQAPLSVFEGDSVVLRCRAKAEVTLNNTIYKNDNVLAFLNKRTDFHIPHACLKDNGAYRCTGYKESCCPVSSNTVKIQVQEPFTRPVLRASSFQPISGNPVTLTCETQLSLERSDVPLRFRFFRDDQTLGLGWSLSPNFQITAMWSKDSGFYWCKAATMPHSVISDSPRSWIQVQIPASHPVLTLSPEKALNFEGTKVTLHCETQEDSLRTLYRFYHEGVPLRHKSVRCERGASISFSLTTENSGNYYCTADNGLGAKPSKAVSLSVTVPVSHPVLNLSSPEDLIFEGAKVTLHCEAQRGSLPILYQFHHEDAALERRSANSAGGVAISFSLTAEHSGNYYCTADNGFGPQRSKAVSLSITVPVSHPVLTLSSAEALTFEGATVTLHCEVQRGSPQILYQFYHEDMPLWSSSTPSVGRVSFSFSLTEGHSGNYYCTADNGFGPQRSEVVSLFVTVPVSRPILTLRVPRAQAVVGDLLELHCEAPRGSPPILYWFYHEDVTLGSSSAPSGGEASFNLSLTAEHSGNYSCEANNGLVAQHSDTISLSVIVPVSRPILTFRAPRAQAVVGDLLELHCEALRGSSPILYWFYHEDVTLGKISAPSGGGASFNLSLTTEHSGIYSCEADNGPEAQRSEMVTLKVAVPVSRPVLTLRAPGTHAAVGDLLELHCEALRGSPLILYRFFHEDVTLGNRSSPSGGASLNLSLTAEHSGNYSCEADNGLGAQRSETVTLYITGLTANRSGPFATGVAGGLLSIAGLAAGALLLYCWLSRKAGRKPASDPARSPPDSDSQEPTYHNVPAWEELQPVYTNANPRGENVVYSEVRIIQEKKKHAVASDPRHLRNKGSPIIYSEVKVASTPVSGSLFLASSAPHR
Description: flow cytometry on CHO cells transfected with myc-tagged IRTA-2; antibody at 10 µg/ml; PE-labeled anti-human IgG. From the text: (§1) Chinese hamster ovary (CHO) cell lines that express either the IRTA-2, IRTA-3 or IRTA-4 protein at the cell surface were developed and used to determine the specificity of the IRTA-2 monoclonal antibodies by flow cytometry. CHO cells were transfected with expression plasmids containing full length cDNA encoding transmembrane forms of IRTA-2, IRTA-3, or IRTA-4. In addition, the transfected proteins contained a myc tag at the N-terminus for detection by anti-myc antibody. Binding of the two anti-IRTA-2 monoclonal antibodies was assessed by incubating the transfected cells with each of the IRTA-2 Abs at a concentration of 10 μg/ml. The cells were washed and binding was detected with a phycoerythrin-labeled anti-human IgG Ab. A murine anti-myc Ab followed by labeled anti-murine IgG was used as the positive control. Secondary antibody alone was used as a negative control. The results are depicted in FIGS. 7A-C. The IRTA-2 monoclonal antibodies 9D12 and 8A1 bound to the CHO line transfected with IRTA-2 but not to CHO lines expressing IRTA-3 or -4, as measured by the mean fluorescent intensity (MFI) of staining.
For orientation: A flow cytometer gives signals particle by particle.

The target in assay [3] is T3, IRTA-3, full length transmembrane form with N-terminal myc tag, on transfected CHO cells (human, UniProt Q96P31 18-734).
T3 construct: also called CHO cells transfected with IRTA-3; human IRTA-3; not shown: myc tag at the N-terminus
T3 sequence: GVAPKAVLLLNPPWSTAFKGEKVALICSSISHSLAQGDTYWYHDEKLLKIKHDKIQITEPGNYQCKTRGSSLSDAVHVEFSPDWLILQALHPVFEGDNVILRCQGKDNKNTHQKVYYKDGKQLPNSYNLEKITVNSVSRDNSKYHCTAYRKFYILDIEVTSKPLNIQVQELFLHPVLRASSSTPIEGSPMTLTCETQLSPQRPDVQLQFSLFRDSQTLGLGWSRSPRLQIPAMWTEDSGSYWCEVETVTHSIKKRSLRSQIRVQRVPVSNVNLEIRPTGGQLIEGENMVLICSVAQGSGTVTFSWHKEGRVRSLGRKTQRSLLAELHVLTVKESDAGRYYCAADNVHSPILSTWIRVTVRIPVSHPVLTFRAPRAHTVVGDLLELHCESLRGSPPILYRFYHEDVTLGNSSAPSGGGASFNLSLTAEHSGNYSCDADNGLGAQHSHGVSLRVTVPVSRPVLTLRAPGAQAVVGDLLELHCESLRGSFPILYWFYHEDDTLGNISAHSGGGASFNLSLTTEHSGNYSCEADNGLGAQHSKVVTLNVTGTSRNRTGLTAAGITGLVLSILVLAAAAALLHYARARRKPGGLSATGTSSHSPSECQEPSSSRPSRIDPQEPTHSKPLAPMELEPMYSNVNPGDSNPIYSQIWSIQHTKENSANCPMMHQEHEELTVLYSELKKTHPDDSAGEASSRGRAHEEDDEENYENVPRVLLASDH
Put plainly: flow cytometry on CHO cells transfected with myc-tagged IRTA-3; PE-labeled anti-human IgG.
From the text: as §1

The target of assay [4] is T4, IRTA-4, full length transmembrane form with N-terminal myc tag, on transfected CHO cells (human, UniProt Q96LA5 20-508).
T4 construct: also called CHO cells transfected with IRTA-4; human IRTA-4; not shown: myc tag at the N-terminus
T4 sequence: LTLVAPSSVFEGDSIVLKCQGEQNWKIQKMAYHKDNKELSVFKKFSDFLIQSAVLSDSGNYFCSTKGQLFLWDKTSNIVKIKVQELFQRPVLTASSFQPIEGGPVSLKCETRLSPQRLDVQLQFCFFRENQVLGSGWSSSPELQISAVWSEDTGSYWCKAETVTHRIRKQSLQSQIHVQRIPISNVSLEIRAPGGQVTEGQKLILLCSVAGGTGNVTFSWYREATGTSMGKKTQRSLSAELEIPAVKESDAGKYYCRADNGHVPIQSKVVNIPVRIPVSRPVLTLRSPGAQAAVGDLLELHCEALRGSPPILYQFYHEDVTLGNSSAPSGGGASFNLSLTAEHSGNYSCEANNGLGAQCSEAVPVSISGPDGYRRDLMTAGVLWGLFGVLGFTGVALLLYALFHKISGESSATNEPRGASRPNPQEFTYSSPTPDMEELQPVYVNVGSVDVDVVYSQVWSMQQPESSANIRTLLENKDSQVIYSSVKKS
Description: flow cytometry on CHO cells transfected with myc-tagged IRTA-4; PE-labeled anti-human IgG.
From the text: as §1

B1: 8A1 human monoclonal antibody (antibody, V domains shown)
VH: QMQLVQSGAEVKKPGASVKVSCKASGYTFISYDINWVRQATGQGLEWMGWMHPNSGNTGYAQKFQGRVTMTRNTSISTAYMELSSLRSEDTAVYYCARGRGITMVRGGIIYYGMDVWGQGTTVTVSS
VL: AIQLTQSPSSLSASVGDRVTITCRASQGISSALAWYQQKPGKAPKLLIYDASSLESGVPSRFSGSGSGTDFTLTISSLQPEDFATYYCQQFNSYPHTFGQGTKLEIK
notes: Purified from a hybridoma of a KM Mouse; Human IgG (captured and detected with anti-human IgG) with a kappa light chain (VK L18); also called anti-IRTA-2 HuMAb 8A1
In assay [1], B1 registered a Kd of 20 nM, a koff of 0.00011 s⁻¹ and a kon of 5800 M⁻¹ s⁻¹.

B2: 9D12 human monoclonal antibody (antibody, V domains shown)
VH: EVQLLESGGGLVQPGGSLRLSCAASGFTFSSSAMSWVRQAPGKGLEWVSSISGSGDTTYYADSVKGRFTISRDNSKNTLYLQMNSLRVEDAALYYCAANWGAAFDIWGQGTMVTVSS
VL: EIVLTQSPATLSLSPGERATLSCRASQSVSSYLAWYQQKPGQAPRLLIYDASNRATGIPARFSGSGSGTDFTLTISSLEPEDFAVYYCQQRSNWPRWTFGQGTKVEIK
notes: Purified from a hybridoma of a HuMAb Mouse; Human IgG (captured and detected with anti-human IgG) with a kappa light chain (VK L6); also called anti-IRTA-2 HuMAb 9D12
On to B2, for which the binding result is “binds” in assay [2], “no binding (tested: 10 µg/ml)” in assay [3] and “no binding (tested: 10 µg/ml)” in assay [4]. This molecule yielded a Kd in assay [1] of 2.1 nM. The koff in assay [1] is 6.9e-05 s⁻¹. This molecule also showed a kon in assay [1] of 34000 M⁻¹ s⁻¹.
